{"source": "patent US20170158755A1", "about": "(PROTHENA BIOSCIENCES, published 2017)", "binders": {"B1": {"name": "mouse monoclonal antibody 19C12 (antibody, V domains shown)", "VH": "QVQLQQSGAELVKPGASVKISCKASGYAFSTYWMNWVKQRPGEGLEWIGQIYPGDGDTNYNGKFKGKATLTADKSSSTAYMQLSSLTSEDSAVYFCARSDGYYDYWGQGTTLTVSS", "VL": "NIVLTQSPASLAVSLGQRATISCRASESVDSYGTSFMHWYQQKPGQPPKLLICLASSLESGVPARFSGSGSRTDFTLTIDPVEADDAATYYCQQNNEDPPTFGAGTKLELKR", "notes": "Mouse hybridoma antibody; Mouse IgG2b was used as its isotype control; also called m19C12"}, "B2": {"name": "mouse monoclonal antibody 1C1 (antibody, V domains shown)", "VH": "QVQLQQSGAELARPGASVKLSCKASGYTFTNYGISWVKQRTGQGLEWIGAIYPRSGNTYYNEKFKGKATLTADKSSSTAYMELRSLTSEDSAVYFCARERDYGSSYALDYWGQGTSVTVSS", "VL": "DIVMTQSQKFMSTSVGDRVSVTCKASHNVGTNVAWYQQKPGQSPKPLIYSASYRYSGVPDRFTGSGSGTDFTLTISNVQSEDLADYFCQQFNNYPYTFGGGTKLEIKR", "notes": "version 1 is written here"}}, "key": {"human His-laminin-α4": {"target": "T1, human His-laminin-α4 (human, UniProt Q16363 833-1823, limits assumed)", "T1 construct": "Bought His-tagged recombinant protein (R & D Systems); also called Human LAMA4; human His-laminin-α4 (R & D Systems)", "T1 sequence": "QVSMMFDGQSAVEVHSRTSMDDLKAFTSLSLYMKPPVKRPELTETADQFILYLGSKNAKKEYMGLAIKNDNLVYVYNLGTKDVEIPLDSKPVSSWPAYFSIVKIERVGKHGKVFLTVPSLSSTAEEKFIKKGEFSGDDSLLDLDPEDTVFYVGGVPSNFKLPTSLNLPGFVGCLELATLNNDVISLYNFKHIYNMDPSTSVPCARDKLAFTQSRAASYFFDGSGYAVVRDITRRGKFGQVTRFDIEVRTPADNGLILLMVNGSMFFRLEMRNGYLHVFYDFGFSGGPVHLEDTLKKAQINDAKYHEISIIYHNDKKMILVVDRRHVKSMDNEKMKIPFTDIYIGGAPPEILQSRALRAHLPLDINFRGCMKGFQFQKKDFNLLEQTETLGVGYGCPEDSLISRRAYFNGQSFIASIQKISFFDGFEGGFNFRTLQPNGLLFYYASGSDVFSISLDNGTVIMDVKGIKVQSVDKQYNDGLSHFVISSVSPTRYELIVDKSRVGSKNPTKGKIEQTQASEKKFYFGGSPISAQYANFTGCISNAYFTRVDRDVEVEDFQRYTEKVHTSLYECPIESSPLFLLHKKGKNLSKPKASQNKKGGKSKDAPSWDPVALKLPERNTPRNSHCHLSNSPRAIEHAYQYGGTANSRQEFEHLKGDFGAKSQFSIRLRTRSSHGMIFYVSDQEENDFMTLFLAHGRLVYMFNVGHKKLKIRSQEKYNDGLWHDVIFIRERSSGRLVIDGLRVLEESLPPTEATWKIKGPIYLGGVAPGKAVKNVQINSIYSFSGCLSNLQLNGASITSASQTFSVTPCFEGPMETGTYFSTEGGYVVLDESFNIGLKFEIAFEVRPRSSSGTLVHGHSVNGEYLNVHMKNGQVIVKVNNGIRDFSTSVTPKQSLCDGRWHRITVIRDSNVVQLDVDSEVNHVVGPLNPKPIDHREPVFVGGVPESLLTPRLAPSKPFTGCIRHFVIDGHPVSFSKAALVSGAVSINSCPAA", "experiment": "Biacore SPR"}, "mouse His-laminin-α4": {"target": "T2, mouse His-laminin-α4 (mouse, UniProt P97927 826-1816, limits assumed)", "T2 construct": "Bought His-tagged recombinant protein; also called Murine LAMA4; recombinant mouse LAMA4-His", "T2 sequence (looked up)": "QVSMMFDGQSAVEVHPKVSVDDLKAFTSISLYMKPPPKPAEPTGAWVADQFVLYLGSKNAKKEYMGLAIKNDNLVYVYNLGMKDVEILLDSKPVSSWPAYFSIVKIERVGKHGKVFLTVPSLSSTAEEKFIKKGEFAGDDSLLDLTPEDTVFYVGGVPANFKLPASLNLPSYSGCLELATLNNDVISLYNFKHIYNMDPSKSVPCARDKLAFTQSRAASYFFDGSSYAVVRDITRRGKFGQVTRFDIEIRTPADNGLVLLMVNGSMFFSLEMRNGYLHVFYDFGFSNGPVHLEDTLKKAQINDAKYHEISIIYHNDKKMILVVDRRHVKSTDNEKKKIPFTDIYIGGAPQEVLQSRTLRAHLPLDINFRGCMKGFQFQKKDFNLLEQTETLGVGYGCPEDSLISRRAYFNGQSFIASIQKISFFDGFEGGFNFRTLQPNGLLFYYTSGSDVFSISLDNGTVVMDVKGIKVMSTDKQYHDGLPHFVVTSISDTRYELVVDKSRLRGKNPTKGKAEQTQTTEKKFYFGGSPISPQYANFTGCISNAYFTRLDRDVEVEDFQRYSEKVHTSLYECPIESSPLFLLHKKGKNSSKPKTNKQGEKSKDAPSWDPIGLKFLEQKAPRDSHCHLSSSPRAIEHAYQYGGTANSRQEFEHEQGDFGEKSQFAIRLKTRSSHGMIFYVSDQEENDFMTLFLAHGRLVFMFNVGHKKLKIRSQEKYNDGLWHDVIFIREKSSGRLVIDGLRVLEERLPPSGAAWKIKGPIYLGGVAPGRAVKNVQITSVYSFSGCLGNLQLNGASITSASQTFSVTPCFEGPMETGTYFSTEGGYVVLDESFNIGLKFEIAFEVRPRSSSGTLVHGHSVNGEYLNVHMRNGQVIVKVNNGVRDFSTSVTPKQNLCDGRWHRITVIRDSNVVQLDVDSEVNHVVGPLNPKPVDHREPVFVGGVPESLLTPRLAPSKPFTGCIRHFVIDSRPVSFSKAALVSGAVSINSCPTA", "experiment": "Biacore SPR"}}}
{"binder": "B1", "values": [{"measurement": "Kd", "setting": "human His-laminin-α4", "value": 1.27, "unit": "nM"}, {"measurement": "koff", "setting": "human His-laminin-α4", "value": 0.00858, "unit": "s⁻¹"}, {"measurement": "kon", "setting": "human His-laminin-α4", "value": "6.72e+06", "unit": "M⁻¹ s⁻¹"}, {"measurement": "Kd", "setting": "mouse His-laminin-α4", "value": 0.965, "unit": "nM"}, {"measurement": "koff", "setting": "mouse His-laminin-α4", "value": 0.0061, "unit": "s⁻¹"}, {"measurement": "kon", "setting": "mouse His-laminin-α4", "value": "6.32e+06", "unit": "M⁻¹ s⁻¹"}]}
{"binder": "B2", "values": [{"measurement": "Kd", "setting": "human His-laminin-α4", "value": 13.3, "unit": "nM"}, {"measurement": "koff", "setting": "human His-laminin-α4", "value": 0.00917, "unit": "s⁻¹"}, {"measurement": "kon", "setting": "human His-laminin-α4", "value": 610000, "unit": "M⁻¹ s⁻¹"}, {"measurement": "Kd", "setting": "mouse His-laminin-α4", "value": 16.1, "unit": "nM"}, {"measurement": "koff", "setting": "mouse His-laminin-α4", "value": 0.00947, "unit": "s⁻¹"}, {"measurement": "kon", "setting": "mouse His-laminin-α4", "value": 590000, "unit": "M⁻¹ s⁻¹"}]}
